Experimental data as given in patent US12018084B2, “Anti-CXCR2 antibodies and uses thereof” (Cephalon LLC, priority 2018, dated 2024).

Columns and labels:
[1] = target: T1, Murine CXCR2 (Mus musculus, UniProt P35343); assay: cELISA of hybridoma supernatants on cells transfected with murine CXCR2; type: binding; details: hybridoma supernatant; fluorescence units relative to positive control (100%)
T1 construct: expressed in transfected cells
T1 sequence (P35343 1-359): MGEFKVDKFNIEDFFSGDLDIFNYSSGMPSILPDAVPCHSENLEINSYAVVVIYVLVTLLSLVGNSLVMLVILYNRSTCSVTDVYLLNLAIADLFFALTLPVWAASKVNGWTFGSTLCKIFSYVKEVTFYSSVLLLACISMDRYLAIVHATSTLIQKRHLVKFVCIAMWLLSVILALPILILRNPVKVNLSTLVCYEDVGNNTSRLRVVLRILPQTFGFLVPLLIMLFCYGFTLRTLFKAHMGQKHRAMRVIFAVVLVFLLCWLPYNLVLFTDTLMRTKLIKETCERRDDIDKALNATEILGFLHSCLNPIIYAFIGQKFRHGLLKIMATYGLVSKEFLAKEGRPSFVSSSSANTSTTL

[2] = target: T2, Human CXCR2 (Homo sapiens, UniProt P25025); assay: cELISA of hybridoma supernatants on cells transfected with human CXCR2; type: binding; set-up: host or cells: Expi293F cells, vector pTT5; details: hybridoma supernatant; fluorescence units relative to positive control (100%)
T2 sequence (P25025 1-360): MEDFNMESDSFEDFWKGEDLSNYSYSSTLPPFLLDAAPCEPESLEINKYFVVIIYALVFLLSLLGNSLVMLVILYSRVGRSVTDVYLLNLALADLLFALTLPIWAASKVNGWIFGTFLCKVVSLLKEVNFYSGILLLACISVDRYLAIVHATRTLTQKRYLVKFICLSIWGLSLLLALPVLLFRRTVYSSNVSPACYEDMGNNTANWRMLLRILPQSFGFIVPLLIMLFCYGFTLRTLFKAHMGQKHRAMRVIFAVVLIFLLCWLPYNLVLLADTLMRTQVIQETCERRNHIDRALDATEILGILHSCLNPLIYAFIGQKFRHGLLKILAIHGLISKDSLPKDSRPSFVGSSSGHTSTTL
Experimental: To generate hybridomas which produced monoclonal antibodies to human CXCR2, splenocytes and/or lymph node cells from animals with the highest anti-CXCR2 titres were isolated and fused to mouse myeloma cells (ATCC, CRL-1580). Cells were plated at approximately 1×10^5 cells/mL in flat bottom microtiter plates, followed by a two week incubation in selective medium (10% FCS and 1×HAT (Sigma)). Hybridomas were expanded by serial passage through four media changes in 96-well plates (96-well stages 1 to 4), then, where required, expanded into T25 and T75 flasks. […] Bound antibodies were detected using a goat anti-rat IgG-HRP (Southern Biotech, #3030-05) secondary antibody.
A panel of hybridomas was generated using lymph nodes and spleen cells from the transgenic rats engineered to express human variable region sequences. A cellular ELISA (cELISA) was used to detect human CXCR2 binding activity in supernatants taken during the expansion process for the hybridomas (Table 5). Hybridomas that retained expression of antibodies that bound CXCR2 after several passages were selected for DNA sequencing.

[3] = target: T2, Human CXCR2; assay: Calcium flux assay, HTS002C-CHEMISCREEN human CXCR2 calcium-optimized cell line; type: cell-based; details: human agonist potency
Experimental: One of the signaling pathways downstream of CXCR2 activation that has a role in cell chemotaxis is characterized by calcium mobilization (flux). The ability of BKO-4A8-101c to inhibit human CXCR2 ligand-induced calcium flux was tested in the commercially available HTS002C-CHEMISCREEN™ human CXCR2 chemokine receptor calcium-optimized cell line.
The Fluo-4 NW calcium assay kit (Life Technologies) was used according to manufacturer's protocol for in-cell measurement of calcium mobilization, which was read using a FLIPR Tetra high-throughput cellular screening system (Molecular Devices). The peak response minus the basal response from each well was used to determine inhibition dose response curves fitting a four-parameter logistic equation and IC50 values.

[4] = target: T2, Human CXCR2; assay: Tango CXCR2-bla U2OS cell-based β-arrestin recruitment assay; set-up: The beta-arrestin/TEV protease fusion and the beta-lactamase reporter are separate parts of the cell line; details: human agonist potency
From the text: Cells were thawed, propagated, cultured and frozen according to the manufacturer's directions.
Preparation of Tango™ CXCR2-bla U2OS cells for use in cell-based assays: The manufacturer's protocol was altered to make use of 96-well plates instead of 384-well plates. Briefly, dividing cells were harvested one day prior to use. Cells were harvested and resuspended in assay medium (100% FreeStyle™ Expression Medium; Life Technologies; Cat #12338-018) at a viable cell density of 312,500 cells/mL. 128 μL of cell suspension was added per well in 96-well black-walled, clear bottom tissue culture-treated plates. Cells were incubated for 16-20 hrs at 37° C. in an atmosphere of 5% CO2 prior to use in assays.
Tango™ assay procedure: Assays were set up and run as described in the manufacturer's protocol. For antagonist assays, agonists were used at concentrations in the EC50-EC80 range. Assays were read using a FlexStation® 3 (Molecular Devices) fluorescence plate reader configured with the parameters given in Table 4. The blue/green emission ratio for each well was calculated by dividing the blue emission values by the green emission values. All inhibition curves were fitted using a four-parameter dose-response using GraphPad Prism™ (Version 7.01).
The Human CXCR2 Tango™ cell line was used to assess the ability of antibody BKO-4A8-101c to inhibit β-arrestin recruitment to agonist-activated CXCR2. All human ELR+ chemokine CXCR2 ligands were tested in antagonist dose response assays using calculated EC50 values of agonist.
The commercially available reporter cell line Tango™ CXCR2-bla U2OS (ThermoFisher Scientific) was used to assess the ability of the anti-CXCR2 antibodies to inhibit β-arrestin recruitment to agonist-activated CXCR2. Agonists were provided at their assay EC50 concentration for antagonist assays.

B1: BKO-4F10: VH SEQ ID NO: 19, VL SEQ ID NO: 20 (antibody, V domains shown)
VH: QVQLVQSGAEVKKPGASVKVSCKASGYTFTGYYIHWVRQAPGQGLEWMGRFNPNNGGTNYAQRFQGRVTMTRDTSISTAYMELSRLRSDDTAVYYCARGPTIRLWFDNWFDSWGQGTLVTVSS
VL: QSALTQPASVSGSPGQSITISCTGTSSDVGGYNYVSWYQQHPGKAPKLMIYDVSNRPSGISNRFSGSKSGNTASLTISGLQAEDEADYYCSSYTSSSTWVFGGGTKLTVL
modifications: BKO_4F10_VH; BKO_4F10_VL
How did the “Murine CXCR2 % Positive” value [1] turn out when B1 was run?
The value was 7%.

And the “Human CXCR2 % Positive” value [2]?
The value was 118%.

B2: BKO-5G11: VH SEQ ID NO: 23, VL SEQ ID NO: 24 (antibody, V domains shown)
VH: EVQLLESGGGLVQPGGSLRLSCAVSGFTFSNYAMTWVRQAPGKGLEWVSAISGRGSRTYYADSVKGRFTISRDTSKNTLYLQMNSLRAEDTAVYYCAKMDYWGQGTLVTVSS
VL: QSALTQPPSASGSPGQSVTISCTGTSSDVGGYNYVSWYQQHPGKAPKLMIFEVSKRPSGVPDRFSGSKSGNTASLTVSGLQAEDEADYYCSSYAGSNNFGVFGGGTKLTVL
modifications: BKO_5G11_VH; BKO_5G11_VL
B2 was tested. Which “Murine CXCR2 % Positive” value [1] did it give?
Its value is 22%.

What about the “Human CXCR2 % Positive” value [2] of the same molecule?
The value was 101%.

B3: BKO-8B6: VH SEQ ID NO: 37, VL SEQ ID NO: 38 (antibody, V domains shown)
VH: EVQLLESGGGLVQPGGSLRLSCAASGFTFSSNAMSWVRQAPGKGLEWVSAISNSGRSTYYADSVKGRFTISRDSSKNTLYLLMNSLRAEDSAVYYCAIKLGYWGQGSLVTVSS
VL: QSALTQPPSASGSPGQSVTISCTGTSSDVGGYNYVSWYQQHPGKAPKLMMYEVSKRPSGVPDRFSGSKSGNTASLTVSGLQAEDEADYYCSSYAGSDNFGVFGGGTRLTVL
modifications: BKO_8B6_VH; BKO_8B6_VL
Which “Murine CXCR2 % Positive” value [1] does the source give for B3 here?
Its value is 6%.

And the “Human CXCR2 % Positive” value [2]?
Its value is 95%.

B4: CXCL7: human agonist chemokine, R&D Systems 393-NP (protein)
chain: AELRCMCIKTTSGIHPKNIQSLEVIGKGTHCNQVEVIATLKDGRKICLDPDAPRIKKIVQKKLAGDESAD
Which EC50 [3] does the source give for B4 here?
The EC50 was 7.14 nM.

And the EC50 [4]?
The EC50 was 39.6 nM.

B5: BKO-7C11: VH SEQ ID NO: 31, VL SEQ ID NO: 32 (antibody, V domains shown)
VH: QVQLQQWGAGLLKPSETLSLTCAVYGGSFSGYYWSWIRQPPGKGLEWIGEINHSRNTNYNPSLKSRVTISVDTSKNQFSLKLSSVTAADTAVYYCARGEVRGVFTLYWYFDVWGRGTLVTVSS
VL: SSELTQGPAVSVALGQTVRITCQGNSLRFYYASWYQQRPGQAPILVIYDKNNRPSGIPDRFSGSSSGNTASLTITGAQAEDEADYYCNSRDSSGYYMIFGGGTKLTVL
modifications: BKO_7C11_H6_B06_VH; BKO_7C11_G01_VL
What does the source list for B5?
Murine CXCR2 % Positive [1]: 4%; Human CXCR2 % Positive [2]: 73%

B6: BKO-8C4: VH SEQ ID NO: 39, VL SEQ ID NO: 40 (antibody, V domains shown)
VH: QLQLQESGPGLVKPSETLSLTCTVSGGSIRTSSYYWGWIRQPPGKGLEYIGSIYYSGTTYYNPSLKSRVTMSVDTSKNQFSLKLSSVTAADTAVYYCARHGRVREVPPFDYWGQGTLVTVSS
VL: SSELTQDPAVSVALGQTVRITCQGDSLRYYYASWYQQKPGQAPVLVIYDENSRPSGIPDRFSGSSSGNTASLRITGTQAEDEADYYCNSRDTSGNHWAFGGGTKLTVL
modifications: BKO_8C4_VH; BKO_8C4_VL
B6 was tested. Which “Murine CXCR2 % Positive” value [1] did it give?
The value was 6%.

What about the “Human CXCR2 % Positive” value [2] of the same molecule?
Its value is 124%.

B7: BKO-1A1: VH SEQ ID NO: 1, VL SEQ ID NO: 2 (antibody, V domains shown)
VH: QLQLQESGPGLVKPSETLSLTCTVSGGSIRTSSYYWGWIRQPPGKGLEYIGSIYYSGTTYYNPSLKSRVTMSVDTSKNQFSLKMSSVTAADSAVYYCARHGRVREVPPFDYWGQGTLVTVSS
VL: SSELTQDPAVSVALGQTVRITCQGDSLRYYYASWYQQKPGQAPVLVIYDENSRPSGIPDRFSGSSSGNTASLSITGTQAEDEADYYCNSRDTSGNHWAFGGGTKLTVL
modifications: BKO_1A1_VH; BKO_1A1_VL
With B7 as the molecule, how does the “Murine CXCR2 % Positive” value [1] read?
Its value is 6%.

And the “Human CXCR2 % Positive” value [2]?
The value was 38%.

B8: BKO-5E8: VH SEQ ID NO: 21, VL SEQ ID NO: 22 (antibody, V domains shown)
VH: EVQLLESGGGLVQPGGSLRLSCAASGFTFSSYAMSWVRQAPGRGLEWVSAIRGSGAGTYYADSMKGRFTISRDNSKDTLYLLMNSLRAEDTAVYYCSKLEAVSGTGKYFQHWGQGTLVTVSS
VL: SYELTQPPSVSVSPGQTANITCSGDTLGDKFACWYQQKPGQSPVLVIYQDTKRPSGIPERFSGSKSGITATLTISGTQAMDEADFYCQAWNSRGVVFGGGTRLTVL
modifications: BKO_5E8_H5_C05_VH; BKO_5E8_L3_C03_VL
What does the source list for B8?
Murine CXCR2 % Positive [1]: 8%; Human CXCR2 % Positive [2]: 109%
